Holding throughout (experiment): EMSA
A general note: Mobility shift assays separate free from complexed probe on a gel.

For data set [1], the target named is T1, CsiR (Pseudomonas putida (KT2440?)) (UniProt Q88IU1).
T1 sequence: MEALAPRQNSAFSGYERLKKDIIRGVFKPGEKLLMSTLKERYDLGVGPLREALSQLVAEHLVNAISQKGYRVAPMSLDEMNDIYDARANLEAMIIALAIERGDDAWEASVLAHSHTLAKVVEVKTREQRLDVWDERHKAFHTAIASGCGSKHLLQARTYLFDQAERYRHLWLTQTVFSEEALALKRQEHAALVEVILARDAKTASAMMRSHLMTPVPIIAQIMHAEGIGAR

Data set [2] has as its target T2, GcdR (Pseudomonas putida (KT2440?)) (UniProt Q88RH3).
T2 sequence: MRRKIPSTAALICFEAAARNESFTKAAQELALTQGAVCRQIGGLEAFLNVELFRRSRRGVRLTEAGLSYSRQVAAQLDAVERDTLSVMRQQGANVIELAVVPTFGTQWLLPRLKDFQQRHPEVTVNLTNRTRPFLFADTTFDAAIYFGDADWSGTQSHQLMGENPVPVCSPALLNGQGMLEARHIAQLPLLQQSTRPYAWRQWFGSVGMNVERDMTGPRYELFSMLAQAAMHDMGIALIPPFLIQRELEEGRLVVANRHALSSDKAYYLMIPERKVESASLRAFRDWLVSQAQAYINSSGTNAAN

In data set [3] the test system is CsiR (Pseudomonas putida (KT2440?)).
Data set [4] concerns GcdR (Pseudomonas putida (KT2440?)).

What is called Kd is the equilibrium constant for the complex coming apart. For “AGTTCGATCTGCGTAAAGGCGTTCATGGCAGTGTCCTGGCTAAAAAAGTAGATGGCGCCGTCCGGTCATGACCTGGATCAGTGCGGGCGAGGTAAAAATATCGCCACTAACTGAAAATGTCTACATTTTTATTTTTCAACGACACTACTCGTGTTTGTCCATTGTTTTTCGTCAGCAGAGGGTTTCGGTATGATCGGCAAAACGTTTTGAGGAACAGGATCTTGGAAGCGCTCGCCCCCCGACAAAACTCAGCATTCAGCGGG (double strand) [csiR-csiD intergenic probe]”, the Kd in data set [1] was 30 nM.
With “CGGGTCGATCCAGTTGAAACTTGCTTTACCGACCATGAGCGAATCCTCGAAATAGGGGTCAGTTTCTTGTGCCTTTGAGCCTAGGCCTGATCGGCTGCGGCGACAAACGAGGATTGCGCACCGATTAGTGATATTTTGTCACTCCGTAAATCGGCAAAACGCCTTATTGACAGCCTTACAAGTGAGGTTGACGTACATGC (double strand) [gcdR intergenic probe]”, the dissociation constant (Kd) in data set [2] stood at 62.5 nM.
csiR-csiD intergenic probe: in data set [3], the Kd worked out at 30 nM.
The substance gcdR intergenic probe registered a Kd in data set [4] of 62.5 nM.

The values above are taken from doi:10.1101/557751.
